US9120851B2, “Human antibodies to human angiopoietin-like protein 4” (Regeneron Pharmaceuticals, Inc., priority 2009, dated 2015)
Changes are numbered by the printed parent chain. Blank lines part the entries; values can stand above or below the molecule they belong to.

How the values were obtained:
[1] = molecular target: T1, hANGPTL5-His (Homo sapiens, UniProt Q86XS5); assay: BIACORE cross-reactivity, amine coupled hANGPTL5-His; format: binding; details: for Specific RU, hANGPTL5-His: chip surface 5265 RU, mAb injected at 3.125-50 μg/mL
T1 construct: His; purchased Abnova Corp. H00253935-P01
T1 sequence (Q86XS5 26-388): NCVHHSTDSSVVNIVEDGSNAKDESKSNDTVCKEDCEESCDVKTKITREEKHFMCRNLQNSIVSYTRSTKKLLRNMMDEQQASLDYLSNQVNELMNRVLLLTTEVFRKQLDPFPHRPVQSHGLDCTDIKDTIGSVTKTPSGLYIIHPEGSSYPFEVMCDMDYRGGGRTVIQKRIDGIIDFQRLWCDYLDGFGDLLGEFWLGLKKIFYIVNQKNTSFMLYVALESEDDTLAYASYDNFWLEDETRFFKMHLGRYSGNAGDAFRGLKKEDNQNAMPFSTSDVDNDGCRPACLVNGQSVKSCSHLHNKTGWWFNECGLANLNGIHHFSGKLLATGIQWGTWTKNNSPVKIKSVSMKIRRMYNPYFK
Protocol: (§1) Possible cross-reactivity of the anti-hANGPTL4 antibodies to related proteins, i.e., hANGPTL3, human angiopoietin-like protein 5 (hANGPTL5) and mouse ANGPTL4 (mANGPTL4), was tested for the selected antibodies, i.e., H1H268P and H1H284P, using the BIACORE™ system. Briefly, anti-hANGPTL4 antibodies as well as negative controls, i.e., two monoclonal antibodies (Control a and Control b) that are non-binders to any ANGPTL proteins, were injected at 3.125 μg/mL-50 μg/mL over amine coupled chip surfaces of hANGPTL3-His (R&D Systems, cat #3829-AN) at 5228 RU, hANGPTL4-His (R&D Systems, cat #4487-AN) at 6247 RU, hANGPTL5-His (Abnova Corp., cat #H00253935-P01) at 5265 RU, and mANGPTL4-His [R26-S410 of mANGPTL4 (SEQ ID NO: 478) fused with an AS linker to a C-terminal 6-histidine tag] at 5233 RU, respectively. A polyclonal antibody specific for hANGPTL3 (R&D System, cat #BAF3485) was also tested.

[2] = system: humanized ANGPTL4 mice; assay: Serum TG levels in humanized ANGPTL4 mice; format: in vivo, mouse; details: for Serum TG: mean±SEM
Protocol: (§2) The effect of anti-hANGPTL4 antibodies H1H268P and H1H284P on serum TG levels was determined in mice expressing the ANGPTL4 protein containing the human N-terminal coil-coil region (“humanized ANGPTL4 mice”). The humanized ANGPTL4 mouse was made by replacing first three exons of the mouse Angptl4 gene (the N terminal coil-coil region) with the corresponding human N-terminal coil-coil ANGPLT4 sequence in C57BL6/129 (F1H4) embryonic stem cells. After germ line transmission was established, heterozygous mice (ANGPTL4hum/+) were bred together to generate homozygous mice [ANGPTL4hum/hum or hANGPTL4(+/+)] on a C57BL6 background. Humanized ANGPTL4 mice were pre-bled 7 days before (day −7) the experiment and put into groups of six mice each for each antibody tested. Antibodies (H1H268P, H1H284P and isotype-matched (hIgG1) control with no known cross-reactivity to mouse antigens) were administered at 10 mg/kg dose by subcutaneous injection. Mice were bled after 4 hours of fasting at days 1, 4, 7 and 11 after antibody injection; and serum TG levels were determined by ADVIA® 1800 Chemistry System (Siemens). Average TG levels were calculated for each time point for each antibody.
The effect of anti-hANGPTL4 antibodies, H4H268P2 and H4H284P, on serum TG levels was determined in humanized ANGPTL4 mice. Humanized ANGPTL4 mice were pre-bled 7 days before the experiment and put into groups of six mice each for each antibody tested. Antibodies (H4H268P2, H4H284P and isotype-matched (hIgG4) control with no known cross-reactivity to mouse antigens) were administered at 10 mg/kg dose by subcutaneous injection. Mice were bled after 4 hours of fasting at days 1, 4, 7 and 11 after antibody injection; and TG levels were determined in the serum by ADVIA® 1800 Chemistry System (Siemens). Average TG levels were calculated for each time point for each antibody.

[3] = molecular target: T2, mANGPTL4(26-410)-His (Mus musculus, UniProt Q9Z1P8); assay: Cell-free LPL bioassay, inhibition of mANGPTL4-His; format: biochemical; details: constant 1 nM mANGPTL4(26-410)-His; antibody 0 to 100 nM; NB: Not blocking
T2 sequence (Q9Z1P8 26-410): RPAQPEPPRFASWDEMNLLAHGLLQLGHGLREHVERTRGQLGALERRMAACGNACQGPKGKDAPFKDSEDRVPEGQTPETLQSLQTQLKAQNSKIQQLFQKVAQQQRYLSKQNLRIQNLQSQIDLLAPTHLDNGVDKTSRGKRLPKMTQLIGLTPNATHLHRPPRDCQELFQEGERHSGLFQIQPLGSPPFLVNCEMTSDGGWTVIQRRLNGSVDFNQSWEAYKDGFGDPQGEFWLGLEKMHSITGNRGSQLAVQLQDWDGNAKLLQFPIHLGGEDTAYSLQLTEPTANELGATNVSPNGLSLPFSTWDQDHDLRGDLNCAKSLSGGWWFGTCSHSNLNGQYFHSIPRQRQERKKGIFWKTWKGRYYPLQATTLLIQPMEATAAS

[4] = molecular target: T3, hANGPTL4-His (Homo sapiens, UniProt Q9BY76); assay: BIACORE cross-reactivity, amine coupled hANGPTL4-His; format: binding; details: for Specific RU, hANGPTL4-His: chip surface 6247 RU, mAb injected at 3.125-50 μg/mL
T3 construct: purchased R&D Systems 4487-AN
T3 sequence (Q9BY76 26-406): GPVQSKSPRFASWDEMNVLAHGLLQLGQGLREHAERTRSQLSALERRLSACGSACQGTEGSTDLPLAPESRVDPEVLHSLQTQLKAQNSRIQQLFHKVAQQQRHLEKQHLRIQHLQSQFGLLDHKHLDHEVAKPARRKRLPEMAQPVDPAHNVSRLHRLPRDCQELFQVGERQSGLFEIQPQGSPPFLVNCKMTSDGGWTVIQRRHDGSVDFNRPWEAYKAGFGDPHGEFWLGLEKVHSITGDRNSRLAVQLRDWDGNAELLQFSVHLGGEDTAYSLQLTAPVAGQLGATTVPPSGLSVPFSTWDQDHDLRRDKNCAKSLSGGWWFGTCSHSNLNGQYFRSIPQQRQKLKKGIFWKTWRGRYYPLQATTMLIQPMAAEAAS
Protocol: as §1

[5] = Serum human Ab levels in humanized ANGPTL4 mice, ELISA; format: in vivo, mouse; design: unit not given here; details: mean±SEM
Protocol: as §2
Levels of circulating anti-hANGPTL4 antibodies (“serum human Ab”) were also determined using a standard ELISA assay. Briefly, plates were coated with a goat anti-human Fc antibody (Sigma-Aldrich) to capture serum human Ab. Serum was then added to the plates and captured anti-hANGPTL4 antibodies were detected by chemiluminescence using a horseradish peroxidase (HRP)-conjugated goat anti-human IgG antibody (Sigma-Aldrich).

[6] = day 1 after injection, 10 mg/kg s.c., 4 h fasting
[7] = day 4 after injection, 10 mg/kg s.c., 4 h fasting
[8] = day 7 after injection, 10 mg/kg s.c., 4 h fasting
[9] = day 1 after injection, 10 mg/kg s.c.
[10] = day 4 after injection, 10 mg/kg s.c.
[11] = day 7 after injection, 10 mg/kg s.c.
[12] = day 11 after injection, 10 mg/kg s.c.
[13] = day 11 after injection, 10 mg/kg s.c., 4 h fasting

binding to hANGPTL5-His (other related ANGPTL protein), in words [1]: did not bind
Specific RU, hANGPTL5-His [1]: −16 RU
IC50 [3]: > 100 nM
binding to hANGPTL4-His, in words [4]: bound specifically
Specific RU, hANGPTL4-His [4]: 768 RU
B1: H1H268P: anti-hANGPTL4 antibody, hIgG1 isotype, HCVR/LCVR SEQ ID NOs 42/44 (antibody, V domains shown)
VH: QVQLQESGAGLLKPSETLSLTCTVYGGSFSIHHWTWIRHPPGKGLEWIGEINHRGSTNYNPSLKSRVTISIDTSKNQFSLKLSAVTAADTAVYYCARGLRFLDWLSSYFDYWGQGTLVTVSS
VL: DIQMTQSPSSLSASVGDRVTITCRASQGISDYLAWYQQKPGKVPNLLIYAASALQSGVPSRFSGSGSGTDFTLTISSLQPEDVATYYCQNYNTAPLTFGGGTKVEIK
reduction in circulating TG compared to isotype-matched control antibody ([2]; 4-11 days after administration, 10 mg/kg s.c.): 25-30%
Serum TG [2, 6]: 129.8 ± 5.6 mg/dL
Serum TG [2, 7]: 73.3 ± 8.9 mg/dL
Serum TG [2, 8]: 83 ± 14 mg/dL
Serum TG ([2]; day −7 (pre-bleed)): 112 ± 9.3 mg/dL
Serum Human Antibody [5, 9]: 24130 ± 1788
Serum Human Antibody [5, 10]: 16557 ± 1369
Serum Human Antibody [5, 11]: 12586 ± 1176
Serum Human Antibody [5, 12]: 6106 ± 1111
Serum Human Antibody ([5]; day −7 (pre-bleed)): 2.92 ± 2.92

B2: H4H268P2: IgG4 version of H1H268P with a single amino acid substitution in framework region 1, HCVR/LCVR SEQ ID NOs 487/44 (antibody, V domains shown)
VH: B1 VH with E6Q
VL: B1 VL
modifications: IgG4 constant region
reduction in circulating TG compared to isotype-matched control antibody, in words ([2]; day 1, 10 mg/kg s.c.): significant reduction
Serum TG [2, 6]: 81 ± 6.8 mg/dL
reduction in circulating TG compared to isotype-matched control antibody, in words ([2]; day 4, 10 mg/kg s.c.): significant reduction
Serum TG [2, 7]: 67 ± 5.3 mg/dL
Serum TG [2, 8]: 56 ± 7.1 mg/dL
Serum TG [2, 13]: 87 ± 8.7 mg/dL
Serum TG ([2]; day −7 (pre-bleed)): 101 ± 9.3 mg/dL

binding to hANGPTL5-His (other related ANGPTL protein), in words [1]: did not bind
Specific RU, hANGPTL5-His [1]: −13 RU
IC50 [3]: > 100 nM
binding to hANGPTL4-His, in words [4]: bound specifically
Specific RU, hANGPTL4-His [4]: 1351 RU
B3: H1H284P: anti-hANGPTL4 antibody, hIgG1 isotype, HCVR/LCVR SEQ ID NOs 90/92 (antibody, V domains shown)
VH: QVQLVESGGGVVQPGRSLRLSCAASGFTFSSYGMHWVRQAPGKGLEWMAVISFDGGNKNNADSVKGRFTISRDNSKNTLYLQMNSLRAEDTAVYYCAKEGDRSGHPYFYYYGLDVWGQGTTVTVS
VL: DIQLTQSPSFLSASVGDRVTITCWASQGISSYLAWYQQKPGKAPKLLIYAASTLQSGVPSRFSGSGSETEFTLTISSLQPEDFATYYCQQLHSYPLTFGGGTKVEIK
Serum TG [2, 6]: 125 ± 18 mg/dL
Serum TG [2, 7]: 67 ± 9.8 mg/dL
Serum TG [2, 8]: 91 ± 7.2 mg/dL
TG levels relative to control, in words [2, 12]: increased back to control level
Serum TG [2, 13]: 109 ± 11 mg/dL
Serum TG ([2]; day −7 (pre-bleed)): 113 ± 11 mg/dL
Serum Human Antibody [5, 9]: 16459 ± 1455
Serum Human Antibody [5, 10]: 9103 ± 767
Serum Human Antibody [5, 11]: 2428 ± 525
Serum Human Antibody [5, 12]: 135 ± 38
Serum Human Antibody ([5]; day −7 (pre-bleed)): 3.02 ± 2.38
